Experimental data taken from FireProtDB (doi:10.1016/0022-2836(92)90560-7).

Conditions: Bacillus amyloliquefaciens, 25 °C, Urea, Fluorescence, MES/Tris 150 mM/150 mM/, NaCl 1 M, whole UniProt chain shown

B1: Ribonuclease wild type, P00648 (protein)
chain: MMKMEGIALKKRLSWISVCLLVLVSAAGMLFSTAAKTETSSHKAHTEAQVINTFDGVADYLQTYHKLPDNYITKSEAQALGWVASKGNLADVAPGKSIGGDIFSNREGKLPGKSGRTWREADINYTSGFRNSDRILYSSDWLIYKTTDHYQTFTKIR
denaturant m value (pH 5.8): 1.95 kcal/mol/M | denaturant midpoint (higher = more stable) (pH 5.8): 5.62 M | unfolding free energy (pH 5.8): 11 kcal/mol | denaturant m value (pH 9): 2.11 kcal/mol/M | denaturant midpoint (higher = more stable) (pH 9): 4.8 M | unfolding free energy (pH 9): 9.41 kcal/mol
